Assay results reported in article PMC9352680, “A comprehensive thermodynamic model for RNA binding by the Saccharomyces cerevisiae Pumilio protein PUF4”.
Substitutions are numbered along the chain they refer to. Names and notes keep the numbering of the source.

Molecular target: T1, PUF4 RNA-binding domain (Saccharomyces cerevisiae, UniProt P25339 537-888)
T1 sequence: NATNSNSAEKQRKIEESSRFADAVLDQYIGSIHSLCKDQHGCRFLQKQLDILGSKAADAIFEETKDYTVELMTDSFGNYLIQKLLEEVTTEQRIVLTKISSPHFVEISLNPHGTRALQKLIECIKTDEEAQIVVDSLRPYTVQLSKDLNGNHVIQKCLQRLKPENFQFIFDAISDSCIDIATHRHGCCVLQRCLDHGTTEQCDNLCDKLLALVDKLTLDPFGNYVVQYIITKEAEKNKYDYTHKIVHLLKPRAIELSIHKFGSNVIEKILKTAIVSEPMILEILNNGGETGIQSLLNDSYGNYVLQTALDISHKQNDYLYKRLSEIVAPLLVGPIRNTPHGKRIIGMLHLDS
Experiment: Mg; RNA-MaP; 20 mM Na-HEPES pH 7.4, 30 mM KOAc, 0.75 mM MgCl2, 0.1% Tween-20, 5% glycerol, 0.1 mg/mL BSA, 2 mM DTT; 25 C; 0.0125-409.6 nM protein
Settings: tags: N-His6-TEV cleaved; C-SNAP kept, Cy3B-labelled; label: tethered on chip by stalled RNA polymerase

## UCUCUUUGUACUUAUCUCUU (ssRNA) [Ic_S1_P3E.1_K3.1_C3.1_H3.1_A3.1_[T5C]_[A6T]_F3.1_T3.1]
  Kd: 66.4 nM

## UCUCUUUGUAAGUAUCUCUU (ssRNA) [Ic_S1_P3E.1_K3.1_C3.1_H3.1_A3.1_[T5A]_[A6G]_F3.1_T3.1]
  Kd: 1780 nM

## UCUCUUUGUAACUAUCUCUU (ssRNA) [Ic_S1_P3E.1_K3.1_C3.1_H3.1_A3.1_[T5A]_[A6C]_F3.1_T3.1]
  Kd: 271 nM

## UCUCUUUGUAUAUGGUCUCUU (ssRNA) [Ib_S1_P4E.1_K4.1_C4.1_H4.1_A4.1_F4.1_[T8G]_[A9G]_T4.1]
  Kd: 47.2 nM

## UCUCUUUGUAAUUAUCUCUU (ssRNA) [Ib_S1_P3E.1_K3.1_C3.1_H3.1_A3.1_[T5A]_[A6T]_F3.1_T3.1]
  Kd: 155 nM

B1: Ic_S2_P4E.1_K4.1_C4.1_H4.1_A4.1_[T5A]_[A6C]_[T7A]_F4.1_[A9C]_T4.1 (ssRNA)
RNA: UUUGAUUAAUAUGAUAUCGUUCUUUCUUGUAACAUCUUCUUUCUCGAUAUCAUAUUAAUCUUU
  Kd: 16 nM

B2: Ic_S2_P4E.1_K4.1_C4.1_H4.1_A4.1_[A6G]_[T7C]_F4.1_[T8C]_[A9T]_T4.1 (ssRNA)
RNA: B1 RNA with A32U, C33G, A34C, U35C, C36U
  Kd: 404 nM

B3: Ic_S2_P4E.1_K4.1_C4.1_H4.1_A4.1_[T5A]_[T7C]_F4.1_[A9G]_T4.1 (ssRNA)
RNA: B1 RNA with C33A, A34C, C36G
  Kd: 18.3 nM

B4: Ic_S2_P4E.1_K4.1_C4.1_H4.1_A4.1_[T5A]_[A6T]_[T7A]_F4.1_[T8A]_[A9T]_T4.1 (ssRNA)
RNA: B1 RNA with C33U, U35A, C36U
  Kd: 94.7 nM

B5: Ic_S2_P4E.1_K4.1_C4.1_H4.1_A4.1_[T5A]_[A6T]_[T7C]_F4.1_[T8A]_[A9G]_T4.1 (ssRNA)
RNA: B1 RNA with C33U, A34C, U35A, C36G
  Kd: 1430 nM

B6: Ic_S2_P4E.1_K4.1_C4.1_H4.1_A4.1_[T5A]_[A6T]_[T7C]_F4.1_[T8C]_[A9C]_T4.1 (ssRNA)
RNA: B1 RNA with C33U, A34C, U35C
  Kd: 454 nM

B7: Ic_S2_P4E.1_K4.1_C4.1_H4.1_A4.1_[A6G]_[T7G]_F4.1_[T8C]_[A9T]_T4.1 (ssRNA)
RNA: B1 RNA with A32U, C33G, A34G, U35C, C36U
  Kd: 619 nM

B8: Ic_S2_P4E.1_K4.1_C4.1_H4.1_A4.1_[T5A]_[T7A]_F4.1_[A9G]_T4.1 (ssRNA)
RNA: B1 RNA with C33A, C36G
  Kd: 21 nM

B9: Ic_S2_P4E.1_K4.1_C4.1_H4.1_A4.1_[T5A]_[T7C]_F4.1_[T8C]_[A9T]_T4.1 (ssRNA)
RNA: B1 RNA with C33A, A34C, U35C, C36U
  Kd: 242 nM

B10: Ic_S2_P4E.1_K4.1_C4.1_H4.1_A4.1_[T5A]_[A6T]_[T7A]_F4.1_[T8A]_[A9C]_T4.1 (ssRNA)
RNA: B1 RNA with C33U, U35A
  Kd: 470 nM

B11: Ic_S2_P4E.1_K4.1_C4.1_H4.1_A4.1_[T5A]_[A6T]_[T7G]_F4.1_[T8C]_[A9T]_T4.1 (ssRNA)
RNA: B1 RNA with C33U, A34G, U35C, C36U
  Kd: 518 nM

B12: Ic_S2_P4E.1_K4.1_C4.1_H4.1_A4.1_[T5A]_[A6T]_F4.1_[T8C]_[A9G]_T4.1 (ssRNA)
RNA: B1 RNA with C33U, A34U, U35C, C36G
  Kd: 649 nM

B13: Ic_S2_P4E.1_K4.1_C4.1_H4.1_A4.1_[T5A]_[A6T]_F4.1_[A9C]_T4.1 (ssRNA)
RNA: B1 RNA with C33U, A34U
  Kd: 44.7 nM

B14: Ic_S2_P4E.1_K4.1_C4.1_H4.1_A4.1_[T5A]_[A6T]_[T7C]_F4.1_T4.1 (ssRNA)
RNA: B1 RNA with C33U, A34C, C36A
  Kd: 2.23 nM

B15: Ic_S2_P4E.1_K4.1_C4.1_H4.1_A4.1_[T5A]_[A6T]_F4.1_[T8C]_[A9C]_T4.1 (ssRNA)
RNA: B1 RNA with C33U, A34U, U35C
  Kd: 315 nM

B16: Ic_S2_P4E.1_K4.1_C4.1_H4.1_A4.1_[T5A]_[A6T]_[T7C]_F4.1_[T8G]_[A9G]_T4.1 (ssRNA)
RNA: B1 RNA with C33U, A34C, U35G, C36G
  Kd: 1800 nM

B17: Ic_S2_P4E.1_K4.1_C4.1_H4.1_A4.1_[T5A]_[A6T]_[T7G]_F4.1_T4.1 (ssRNA)
RNA: B1 RNA with C33U, A34G, C36A
  Kd: 8.85 nM

B18: Ic_S2_P4E.1_K4.1_C4.1_H4.1_A4.1_[T5A]_F4.1_[T8G]_[A9T]_T4.1 (ssRNA)
RNA: B1 RNA with C33A, A34U, U35G, C36U
  Kd: 164 nM

B19: Ic_S2_P4E.1_K4.1_C4.1_H4.1_A4.1_[T5A]_[A6T]_[T7A]_F4.1_[T8A]_T4.1 (ssRNA)
RNA: B1 RNA with C33U, U35A, C36A
  Kd: 56 nM

B20: Ic_S2_P4E.1_K4.1_C4.1_H4.1_A4.1_[T5A]_[T7C]_F4.1_[A9C]_T4.1 (ssRNA)
RNA: B1 RNA with C33A, A34C
  Kd: 26.1 nM

B21: Ic_S2_P4E.1_K4.1_C4.1_H4.1_A4.1_[T5A]_[A6T]_[T7C]_F4.1_[T8C]_[A9T]_T4.1 (ssRNA)
RNA: B1 RNA with C33U, A34C, U35C, C36U
  Kd: 283 nM

B22: Ic_S2_P4E.1_K4.1_C4.1_H4.1_A4.1_[T5A]_[A6T]_[T7C]_F4.1_[A9T]_T4.1 (ssRNA)
RNA: B1 RNA with C33U, A34C, C36U
  Kd: 22 nM

B23: Ic_S2_P4E.1_K4.1_C4.1_H4.1_A4.1_[T5A]_[A6T]_[T7C]_F4.1_[T8C]_[A9G]_T4.1 (ssRNA)
RNA: B1 RNA with C33U, A34C, U35C, C36G
  Kd: 648 nM

B24: Ic_S2_P4E.1_K4.1_C4.1_H4.1_A4.1_[T5A]_[A6C]_F4.1_[T8C]_T4.1 (ssRNA)
RNA: B1 RNA with A34U, U35C, C36A
  Kd: 324 nM
